Earlier results on one molecule are cited in US6200966A, “Compositions for inhibiting airway wall inflammation” (Amrad Operations Pty. Ltd., priority 1996, dated 2001).

The test system of the data set is cultured airway smooth muscle. As to conditions: various species.

B1: PDGFBB: platelet-derived growth factor (protein, UniProt P01127 82-190, looked up)
Platelet-derived growth …: SLGSLTIAEPAMIAECKTRTEVFEISRRLIDRTNANFLVWPPCVEVQRCSGCCNNRNVQCRPTQVQLRPVQVRKIEIVRKKPIFKKATVTLEDHLACKCETVAAARPVT
On to B1, for which the “mitogenic activity on airway smooth muscle” value is on record as “most effective proliferative agents”.
